Results reported in patent publication US20180305460A1 (Teva, published 2018).
Numbering of substitutions follows the chain as printed. In names and notes the source's numbering stands.

Assays:
[1] = target: T1, interferon-alpha/β receptor (IFNAR) (human, UniProt P17181); experiment: cell-based or functional assay
T1 sequence (receptor (subunits not named in the filing), looked up): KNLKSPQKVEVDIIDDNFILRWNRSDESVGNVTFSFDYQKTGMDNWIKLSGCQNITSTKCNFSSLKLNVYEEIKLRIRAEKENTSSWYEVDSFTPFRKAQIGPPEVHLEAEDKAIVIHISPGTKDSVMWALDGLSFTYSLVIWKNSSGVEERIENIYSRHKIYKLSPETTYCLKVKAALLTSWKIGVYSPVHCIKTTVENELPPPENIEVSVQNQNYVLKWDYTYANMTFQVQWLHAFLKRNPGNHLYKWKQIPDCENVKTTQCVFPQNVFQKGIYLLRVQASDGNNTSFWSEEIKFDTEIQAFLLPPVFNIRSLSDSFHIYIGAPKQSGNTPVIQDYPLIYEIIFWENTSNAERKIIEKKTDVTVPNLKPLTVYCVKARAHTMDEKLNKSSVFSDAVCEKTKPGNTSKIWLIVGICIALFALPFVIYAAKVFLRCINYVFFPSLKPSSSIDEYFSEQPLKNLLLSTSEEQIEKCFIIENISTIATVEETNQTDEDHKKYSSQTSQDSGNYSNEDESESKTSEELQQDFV

[2] = target: Human CD38 (soluble analyte in the SPR assay) (human, UniProt P28907 43-300); experiment: SPR (Biacore), antibody captured on Protein A from supernatant, CD38 injected; weakest KD among the separate SPR experiments
Human CD38 [3] = target: T2, Human CD38 (human, UniProt P28907 43-300); experiment: SPR (Biacore), the experiment for all other antibodies of Table 7
Human CD38 [4] = target: T2, Human CD38; experiment: SPR (Biacore), the separate experiment in which X02.107 was evaluated
[5] = target: T3, Human CD38 on CD38-positive myeloma cells (ARP-1, H929) (human, UniProt P28907 43-300); experiment: flow cytometry, ARP-1 cells (CD38-positive)
T3 construct: Endogenous CD38 on the human myeloma cell lines ARP-1 and H929, used in flow cytometry; also called NCI-H929

Human CD38 [6] = target: T2, Human CD38; experiment: SPR (Biacore), antibody from supernatant captured on Protein A, human CD38 injected, 1:1 fit
Human CD38 [7] = target: T2, Human CD38; experiment: SPR (Biacore), antibody from supernatant captured on Protein A, human CD38 injected, 1:1 fit; separate experiment in which X02.1 gave 2.7 × 10^-8
[8] = target: Human CD38 on CD38-positive myeloma cell lines ARP-1 and H929 (human, UniProt P28907 43-300); experiment: flow cytometry on ARP-1 cells, purified protein

B1: A02.6 (wt. IFN) (antibody)
chain 1: QLQLQESGPGLVKPSETLSLTCTVSGGSISSSSYYWSWIRQHPGKGLEWIGYIYYSGSTNYNPSLKSRVTISVDTSKNQFSLKLSSVTAADTAVYYCARVGGAGGWPMDVWGQGTTVTVSS
chain 2: QAVLTQPASLSASPGESARLTCTLPSDINVRYYNIYWYQQKPGSPPRYLLYYYSDSHKGQGSGVPSRFSGSKDVSTNSGILLISGLQSEDIATYYCMTWSSNGSGVFGGGTQLTVLG
With B1 the “EC50; HEK-Blue IFN-alpha/β SEAP reporter (A630) on CD38-negative cells, the unit comes from the x axis 'IFN pM'” value [1] was 667 pM.

B2: X02.1 (antibody, human IgG4 S228P, lambda)
heavy: not shown
light: QAVLTQPASLSASPGESARLTCTLPSDINVRYYNIYWYQQKPGSPPRYLLYYYSDSHKGQGSGVPSRFSGSKDVSTNSGILLISGLQSEDEADYYCMTWSSNGSGVFGGGTQLTVLGQPKAAPSVTLFPPSSEELQANKATLVCLISDFYPGAVTVAWKADSSPVKAGVETTTPSKQSNNKYAASSYLSLTPEQWKSHRSYSCQVTHEGSTVEKTVAPTECS
notes: also called parental antibody X02.1; unfused form of A02.1 (X355/02)
B2 was tested, and the Kd [2] was 0.378 to 27 nM.

B3: X02.1 (antibody, human IgG4 S228P)
heavy: not shown
VL: B1 chain 2 with I91E, T93D
notes: Human IgG4 S228P, not fused to IFN; also called parental antibody X02.1
Binder B3 has a Kd (Human CD38 [3]) of 0.378 nM and a Kd (Human CD38 [4]) of 27 nM.

B4: X02.69 (antibody, human IgG4 S228P)
heavy: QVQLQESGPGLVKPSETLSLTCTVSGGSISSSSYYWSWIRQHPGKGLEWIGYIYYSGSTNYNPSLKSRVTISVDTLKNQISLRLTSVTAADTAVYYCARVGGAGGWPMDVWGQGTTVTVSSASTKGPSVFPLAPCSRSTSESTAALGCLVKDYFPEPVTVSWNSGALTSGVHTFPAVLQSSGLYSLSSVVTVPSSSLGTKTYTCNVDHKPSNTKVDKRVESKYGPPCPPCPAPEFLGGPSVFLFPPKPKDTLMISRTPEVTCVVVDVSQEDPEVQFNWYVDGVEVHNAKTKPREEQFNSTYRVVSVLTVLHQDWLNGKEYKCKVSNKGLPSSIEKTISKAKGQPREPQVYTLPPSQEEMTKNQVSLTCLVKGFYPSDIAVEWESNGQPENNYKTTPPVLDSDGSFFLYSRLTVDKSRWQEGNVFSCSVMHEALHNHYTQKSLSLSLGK
VL: B1 chain 2 with I91E, T93D
notes: IgG4 S228P; VH Q2V relative to X02.1
B4 was tested, and the EC50 [5] was 16.8 µg/mL and the Kd (Human CD38 [6]) was 0.0368 nM.

B5: X02.107 (antibody)
heavy: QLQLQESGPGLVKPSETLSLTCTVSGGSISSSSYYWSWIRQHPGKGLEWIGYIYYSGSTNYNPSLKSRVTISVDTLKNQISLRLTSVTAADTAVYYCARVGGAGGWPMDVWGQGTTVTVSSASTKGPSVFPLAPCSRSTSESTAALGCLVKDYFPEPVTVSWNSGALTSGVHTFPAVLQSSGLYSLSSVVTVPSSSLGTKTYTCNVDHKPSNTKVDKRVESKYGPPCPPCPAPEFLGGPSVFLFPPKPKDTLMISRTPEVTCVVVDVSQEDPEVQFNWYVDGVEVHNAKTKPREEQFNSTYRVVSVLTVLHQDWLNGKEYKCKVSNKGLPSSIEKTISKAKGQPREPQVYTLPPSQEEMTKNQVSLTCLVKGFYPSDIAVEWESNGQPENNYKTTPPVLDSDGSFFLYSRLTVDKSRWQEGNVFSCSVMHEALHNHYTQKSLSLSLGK
VL: B1 chain 2
notes: IgG4 S228P with the X02.1 VH; VL E83I, D85T relative to A02.1
For B5, the Kd (Human CD38 [7]) was 24.7 nM.

B6: A02.1 (antibody)
heavy: B1 chain 1 with S76L, F80I, K83R, S85T
light: B2 light
notes: Anti-CD38 IgG4 fused to attenuated IFN-alpha2b A145D at the heavy chain C-terminus; also called X355/02-HC-L0-IFN-alpha (A145D) IgG4
In the case of B6, the EC50 [8] is reported as 1.45 µg/mL.
